According to doi:10.1101/2022.10.14.512271:

What was measured:
[1] = molecular target: lac repressor M42I/K84L (IhL) (UniProt P03023 1-360, M42I;K84L); assay: fluorescence anisotropy
[2] = molecular target: lac repressor M42I (Ihk) (UniProt P03023 1-360, M42I); assay: fluorescence anisotropy
Chain of lac repressor M42I (Ihk) (P03023 whole entry M42I): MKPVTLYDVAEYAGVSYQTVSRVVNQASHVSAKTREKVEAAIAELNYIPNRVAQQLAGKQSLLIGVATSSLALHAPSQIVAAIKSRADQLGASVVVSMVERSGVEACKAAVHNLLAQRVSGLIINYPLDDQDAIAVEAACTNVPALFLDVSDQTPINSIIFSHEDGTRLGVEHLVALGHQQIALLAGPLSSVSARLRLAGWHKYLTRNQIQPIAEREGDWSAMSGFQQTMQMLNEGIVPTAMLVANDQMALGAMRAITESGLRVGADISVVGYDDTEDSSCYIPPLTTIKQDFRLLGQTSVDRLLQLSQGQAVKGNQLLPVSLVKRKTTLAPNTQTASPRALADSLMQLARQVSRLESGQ

Chain of lac repressor M42I/K84L (IhL) (P03023 whole entry M42I/K84L): as the sequence (P03023 whole entry M42I) above, with K84L counted along it

B1: FI-Oid (18-mer operator) (dsDNA)
DNA 1: ATTGTGAGCGCTCACAAT
DNA 2: ATTGTGAGCGCTCACAAT
B1: binds [1]; binds [2].
